Data on 6 molecules can be found in patent publication US20210180067, “NUCLEIC ACID APTAMERS” (UNIVERSITY OF IOWA RESEARCH FOUNDATION, published 2021).

For series [1], the target named is T1, CD25 (IL-2 receptor alpha, IL2RA) (Homo sapiens, UniProt P01589 P01589:22-240). As to the kind of experiment: pulldown; 100 nM RNA, CD25 Dynabeads, 2 mM CaCl2, 37 C, RT-qPCR; greater than C-248. Conditions: tags: His-tag; Thermo Fisher. On the procedure: (§1) Aptamer binding to recombinant CD25 protein or CD25-IL2 receptor-ligand complex-coated Dynabeads was measured as follows. Streptavidin-coated Dynabeads, antibody-coupling kit, and Dynabeads for His-tagged protein binding were obtained from Thermo Fisher. Histidine-tagged recombinant human CD25 (Thermo Fisher, USA) was coated onto His-tag-binding Dynabeads (Thermo Fisher, USA). Protein coated beads were blocked with binding buffer [HEPES-buffered saline with 2 mM CaCl2) containing 0.1 mg/ml BSA and tRNA. In cases where CD25-IL2 complexes were tested, equimolar amounts of IL2 was incubated with CD25-coated beads for 30 minutes at 37 degrees Celsius and the unbound IL2 was washed away. Folded aptamers were then incubated with CD25- or CD25-IL2-coated beads at a concentration of 100 nM for 30 minutes at 37 degrees Celsius under rotation. Beads were then washed thrice with binding buffer at 37 degrees Celsius. Bound RNA aptamers were extracted using Trizol spiked with M12-23 reference control and were quantified using SyBR green-based RT-qPCR assay. The bead-bound SEL2 aptamers were normalized to M12-23 reference control before further analysis. The values obtained for Treg-binding aptamers were normalized to the negative control aptamer, C-248, and plotted. Nucleotides corresponding to the N20 region are underlined and italicized.
T1 sequence (P01589 22-240, one chain of several): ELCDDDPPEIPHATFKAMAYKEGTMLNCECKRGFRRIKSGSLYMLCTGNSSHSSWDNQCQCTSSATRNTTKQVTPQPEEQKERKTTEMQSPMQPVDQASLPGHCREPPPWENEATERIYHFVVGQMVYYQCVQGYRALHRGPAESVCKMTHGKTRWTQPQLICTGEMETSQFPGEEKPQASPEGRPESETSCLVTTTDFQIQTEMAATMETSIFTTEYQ

For series [2], the target named is T2, CD25 (IL2RA)-IL2 complex (Homo sapiens, UniProt P01589;P60568 P01589:22-240,P60568:21-153). As to the kind of experiment: pulldown; similar binding to unoccupied CD25 and complex; 2 mM CaCl2, 37 C, RT-qPCR. Particulars: tags: CD25 His-tagged, Thermo Fisher. On the procedure:
as §1

Series [3] has as its target T1, CD25 (IL-2 receptor alpha, IL2RA). As to the kind of experiment: pulldown; 100 nM RNA, CD25 Dynabeads, 2 mM CaCl2, 37 C, RT-qPCR; prefers unoccupied CD25. Particulars: tags: His-tag; Thermo Fisher. On the procedure: as §1
Series [4] concerns the target T2, CD25 (IL2RA)-IL2 complex. As to the kind of experiment: pulldown; binding increased vs unoccupied CD25; 2 mM CaCl2, 37 C, RT-qPCR; correlates with IL2 occupancy (R2=0.661). Particulars: tags: CD25 His-tagged, Thermo Fisher. On the procedure:
as §1

For series [5], the target named is T1, CD25 (IL-2 receptor alpha, IL2RA). As to the kind of experiment: pulldown; negative control used for normalisation; 2 mM CaCl2, 37 C, RT-qPCR. Particulars: tags: His-tag; Thermo Fisher. On the procedure:
as §1

For series [6], the target named is T2, CD25 (IL2RA)-IL2 complex. As to the kind of experiment: pulldown; binding increased vs unoccupied CD25; 2 mM CaCl2, 37 C, RT-qPCR; correlates with IL2 occupancy (R2=0.724). Particulars: tags: CD25 His-tagged, Thermo Fisher. On the procedure: as §1
In series [7] the target is T1, CD25 (IL-2 receptor alpha, IL2RA). As to the kind of experiment: pulldown; 100 nM RNA, CD25 Dynabeads, HEPES saline 2 mM CaCl2, BSA, tRNA, 37 C, RT-qPCR; greater than C-248. Particulars: tags: His-tag; Thermo Fisher. On the procedure: as §1

T2 sequence (P01589 22-240, chain 1 of 2): as the sequence (P01589 22-240, one chain of several) above
T2 sequence (P60568 21-153, chain 2 of 2): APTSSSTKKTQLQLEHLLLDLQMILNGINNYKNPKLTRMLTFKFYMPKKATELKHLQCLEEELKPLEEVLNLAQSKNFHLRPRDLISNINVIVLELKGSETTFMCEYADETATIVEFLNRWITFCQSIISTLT

B1: Tr-11 (ssRNA)
RNA: GGGAGGACGAUGCGGAUUCUGGUUACUGGCCGCCCCAGACGACUCGCCCGA
modifications: 2'-F C and U
Consider B1, for which the binding result (in series [1]; with CD25 (IL2RA)-IL2 complex [2]) was “binds” in each case.

B2: Tr-6 (ssRNA)
RNA: GGGAGGACGAUGCGGCGUUUCCUCUGGUUCGUCCCCAGACGACUCGCCCGA
modifications: 2'-F C and U
As to B2, the binding result in series [3] is reported as “binds”.

B3: Tr-7 (ssRNA)
RNA: GGGAGGACGAUGCGGUGAGUCGUUCCCUUCGUCCCCAGACGACUCGCCCGA
modifications: 2'-F C and U
Take B3: the binding result (in series [1]; with CD25 (IL2RA)-IL2 complex [4]) was “binds” in each case.

B4: Tr-8 (ssRNA)
RNA: GGGAGGACGAUGCGGGCCGUUGUUGUGUGCCGCCCCAGACGACUCGCCCGA
modifications: 2'-F C and U
In the case of B4, the binding result in series [3] is recorded as “binds”.

B5: C-248 (ssRNA)
RNA: GGGAGGACGAUGCGGCACACCGAAAUGUCCCGACUCAGACGACUCGCCCGA
modifications: 2'-F C and U
Turning to B5, in series [5], the binding result is reported as “no binding”.

B6: Tr-1 (ssRNA)
RNA: GGGAGGACGAUGCGGUCCUGUCGUCUGUUCGUCCCCAGACGACUCGCCCGA
modifications: 2'-F C and U
Take B6: the binding result (in the series with CD25 (IL2RA)-IL2 complex [6]; in series [7]) was “binds” each time.
